Experimental findings from patent US6656735, “Method for identification of target genes of transcription factors” (GSF Forschungszentrum Fuer Umwelt Und Gesundheit GmbH) are described below.

Series [1] concerns the target T1, EnHD (Engrailed 2 homeodomain, 60 aa) (Gallus gallus, UniProt Q05917 Q05917:200-259).
T1 sequence: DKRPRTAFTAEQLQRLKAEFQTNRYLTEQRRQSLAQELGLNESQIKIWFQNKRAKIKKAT
The series can be described thus: EMSA; four complexes with 10 to 100 ng EnHD; fragment with six NP6 copies. The following applies: tags: E. coli pET-3a, heparin-sepharose purified, no tag stated; label: 32P. On the procedure: FIGS. 2A, 2B and 2C: Bacterially produced EnHD binds DNA and is efficiently internalized into cells in culture. (A) Polyacrylamide gel electrophoresis is of EnHD purified from *E. coli* extracts (Coomassie staining). (B) Band shift assay, performed by incubating 0.5 ng ^32P-ATP-labeled NP6 oligonucleotides with increasing amounts (0, 10, 20, 50 and 100 ng) of purified EnHD. (C) ES cells (upper Pannels) or GMA24FIA (lower Pannels) were incubated for 2 hrs. with FITC-EnHD (300 ng/ml) (left) or FITC alone (right).
The protocol described in FIG. 1 requires the EnHD added to the culture medium to be internalized by a large number of ES cells. EnHD was produced in E. coli and purified on heparin sepharose. […] To test the binding properties of EnHD, gel shift experiments were performed using a DNA fragment containing six copies of the NP6 site (TCAATTAAAT) (SEQ ID NO:3) known to bind Drosophila Engrailed.
Background: Mobility shift assays separate free from complexed probe on a gel.

For series [2], the target named is T2, Engrailed 2 full length (En2, ChEn2) (Gallus gallus, UniProt Q05917 Q05917:1-289).
T2 sequence: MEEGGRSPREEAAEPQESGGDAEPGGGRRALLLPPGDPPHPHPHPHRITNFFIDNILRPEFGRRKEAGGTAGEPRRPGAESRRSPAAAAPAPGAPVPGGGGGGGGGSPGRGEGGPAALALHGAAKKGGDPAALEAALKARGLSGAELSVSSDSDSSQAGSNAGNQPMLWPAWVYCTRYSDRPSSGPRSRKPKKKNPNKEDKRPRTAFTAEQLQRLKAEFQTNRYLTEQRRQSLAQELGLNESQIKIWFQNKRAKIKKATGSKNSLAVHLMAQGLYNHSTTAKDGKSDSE
Nature of the series: EMSA; two shifted complexes; no ATTA core; 20 mM Tris-HCl pH 7.9, 35 mM KCl, 2.5 mM MgCl2, poly-dIdC, on ice. The settings on record: label: 32P.

The target in series [3] is T2, Engrailed 2 full length (En2, ChEn2). The series can be described thus: EMSA; two shifted complexes; 20 mM Tris-HCl pH 7.9, 35 mM KCl, 2.5 mM MgCl2, poly-dIdC, on ice. The settings on record: label: 32P.

B1: NP6 site, six copies (dsDNA)
DNA 1: TCAATTAAAT
DNA 2: ATTTAATTGA
For the molecule B1, the binding result in series [1] was “binds”.

B2: BPAG1e promoter oligonucleotide -694 to -665 (dsDNA)
DNA 1: CGCAGAATATTGGCTCAGTAACTAAGTGTG
DNA 2: CACACTTAGTTACTGAGCCAATATTCTGCG
For B2, the binding result in series [2] is “binds”.

B3: BPAG1e promoter oligonucleotide -2225 to -2180 (dsDNA)
DNA 1: CTCAAATAATTAGTCATTAAAAAAAATAAAGGCATATGAGCCAGCCT
DNA 2: AGGCTGGCTCATATGCCTTTATTTTTTTTAATGACTAATTATTTGAG
For the molecule B3, in series [3], the binding result is listed as “binds”.
